Molecular target: T1, Zip2(499-704);Spo16 (Saccharomyces cerevisiae;Saccharomyces cerevisiae) (UniProt P53061+P17122)
T1 sequence 1: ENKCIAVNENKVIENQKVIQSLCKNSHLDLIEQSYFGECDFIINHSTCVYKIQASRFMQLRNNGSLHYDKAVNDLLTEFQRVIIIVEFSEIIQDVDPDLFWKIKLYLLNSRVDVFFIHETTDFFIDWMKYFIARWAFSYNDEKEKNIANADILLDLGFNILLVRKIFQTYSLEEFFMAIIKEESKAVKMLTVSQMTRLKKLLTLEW
T1 sequence 2: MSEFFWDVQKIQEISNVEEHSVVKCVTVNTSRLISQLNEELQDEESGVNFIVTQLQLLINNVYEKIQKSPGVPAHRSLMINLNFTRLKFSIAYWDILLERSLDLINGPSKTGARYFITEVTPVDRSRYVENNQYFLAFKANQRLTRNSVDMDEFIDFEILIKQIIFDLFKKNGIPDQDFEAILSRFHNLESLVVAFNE
Assay: EMSA

Q: With nicked Holliday Junction as the substance, how does the Kd read?
A: Its Kd is 5 µM.
